Source: patent US10597674B2, “HPPD variants and methods of use” (BASF Agricultural Solutions Seed, US LLC, priority 2015, dated 2020)
Numbering of substitutions follows the chain as printed. Names may count otherwise.

Experiments:
[1] = molecular target: HPPD polypeptides (wild-type SEQ ID NO:1 and mutants) (Pseudomonas sp., UniProt P80064, A172V/A339V/A53E/D148E/D45N/E105D/E287Q/E300V/E334P/F143Y/G286D/G335H/H150N/H254A/H63N/I158V/I187A/I249V/I344V/K92N/L18F/N24G/N280D/N336S/P267G/S245T/S257K/S301E/T205S/T269E/V65I); conditions: compared with SEQ ID NO: 24; Table 3a and 3c
[2] = system: E. coli cells expressing an HPPD polypeptide; assay: Brown Color Assay on solid LB-agar, visual score of brown pigment; type: cell-based; parameters: key to brown pigment formation: +++: a dark brown coloring as seen for E. coli cells expressing one of the respective mutant HPPD polypeptide without inhibitor; ++: medium brown pigmentation; +: light brown pigmentation; 0: no brown pigmentation development was detected on the LB agar plates
Description: Mutant HPPD polypeptides were analyzed using a brown color assay (WO2014/043435). Bacterial cells expressing the mutant HPPD polypeptide according to the invention were assayed in 96 well format for HPPD inhibitor tolerance by spotting on solid media containing LB-agar, selection agent for the expression vector pSE420(RI)NX (WO2014/043435), 5 mM tyrosine (Sigma-Aldrich, St. Louis, USA), 42 mM succinate (Sigma-Aldrich, St. Louis, USA) and six different concentrations of the HPPD inhibitor herbicide Cmpd. 1 (0-500 μM). In the brown color assay, an overnight culture of the E. coli cells expressing one of the respective mutant HPPD polypeptides were diluted to an OD600 of 1 and 10 μl extract was spotted in triplicates on plates containing 0, 25, 50, 100, 250, or 500 μM of Cmpd. 1. Plates were covered with airpore tape and incubated at 30 degrees C. After 24 hours, the cells were kept in darkness at room temperature and after 7 days the brown pigment formation was scored visually. In the presence of an HPPD inhibitor herbicide, this pigment formation is inhibited and the color of the agar plate will not alter, unless an HPPD inhibitor herbicide tolerant HPPD polypeptide is expressed and active. […] The “++” and “+” scores a medium and light brown pigmentation, respectively, and the “0” means that no brown pigmentation development was detected on the LB agar plates.

[3] = system: transgenic T1 soybean events; assay: Field trials of T1 soybean events, leaf damage eight days after application; type: in vivo
Description: Soybean plants expressing an HPPD inhibitor tolerant polypeptide of the present invention alone, or along with a gene conferring tolerance to glyphosate and/or a gene conferring tolerance to glufosinate or having a “plant expression cassette”, which includes only an HPPD inhibitor tolerant polypeptide of the present invention, were tested for tolerance to different HPPD inhibitor herbicide chemical classes. The transgenic plants were routinely analyzed for the expression and presence of the transgenes using the ELISA protein detection method (see detailed description under item D and H). Only plants recovering in the selection media and having a detectable HPPD transgene protein expression were regenerated, transferred to the greenhouse and used at V2-V4 growth stage for the HPPD inhibitor herbicide tolerance analysis of the T0 soybean events in the greenhouse (Example 6). The chemical formulation with HPPD inhibitor herbicides was supplemented with ammonium sulfate and methyl ester rapeseed oil. Herbicide tolerance evaluation was taken 5-21 days after spraying. The best performing independent T0 soybean events were selfed to produce T1 soybean seeds. In the field trails, the advanced T1 soybean seeds were planted and treated with either 210 g/ha of isoxaflutole or 150 g/ha of Cmpd.
In Table 10, the frequency of the soybean events showing a good tolerance, i.e. equal or less than 15% damage of the total leaf area are summarized

[4] = system: transgenic soybean T0 events; assay: Greenhouse spray test of T0 soybean events, herbicide tolerance rating 0-3; type: in vivo; conditions: Cmpd. 1 300 g AI/ha
Description: Tolerant green shoots were transferred to rooting media or grafted. Rooted plantlets were transferred to the greenhouse after an acclimation period. Plants containing the transgene were then sprayed with HPPD inhibitor herbicides, as for example with mesotrione at a rate of 300-600 g AI/ha, or with Cmpd. […] Five to ten days after the application, the symptoms due to the application of the herbicide were evaluated and compared to the symptoms observed on wild-type plants under the same conditions.
For example, T0 soybean plants having a “plant expression cassette”, which includes an HPPD inhibitor tolerant HPPD polypeptide of the present invention, were tested towards the tolerance of Cmpd. 1.
Prior greenhouse trials with the transgenic plants, soybean transformants were routinely analyzed for the expression and presence of the transgenes using the ELISA protein detection method (see detailed description under item D and H). Only plants recovering in the selection media and having a detectable HPPD transgene protein expression were used for the herbicide tolerance analysis. A DeVries Tracker Sprayer was calibrated prior to each spraying. The chemical formulation used for Cmpd. 1 was supplemented with ammonium sulfate and methylated rape seed oil. Spray tests were conducted with a concentration, which equals to 300 grams AI per hectare (300 g AI/ha). Tolerance was evaluated 5 days after spraying. […] A rating of “3” was assigned to plants showing good tolerance, i.e. less than 10% of the leaf area from the top three trifoliate leaves showing chlorosis or only very slight bleaching.

[5] = system: E. coli cells expressing an HPPD polypeptide; assay: Brown color bioassay in liquid culture, residual brown color formation (BCF), OD440 after 96 hours; type: cell-based; conditions: Cmpd. 1 1000 μM, 96 hours
How it was run: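 E. coli expressing HPPD variants were grown at 30 degrees Celsius from OD600 0.3-0.5 in LB with 5 mM HPP, with or without herbicide (e.g. Cmpd. 1, 1000 μM). After 96 hours, supernatant OD440 was measured; residual brown colour formation compares pigment with and without inhibitor.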

[6] = system: transgenic soybean T0 events; assay: Additional greenhouse trials of T0 soybean events, leaf damage score 0-100 as percentiles; type: in vivo; conditions: Cmpd. 1 300 g AI/ha, five days
How it was run: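 Independent T0 events (21 to 94 per construct, single cassette insertion) expressing mutant HPPD were sprayed with HPPD inhibitor herbicide in the greenhouse. Leaf damage scored 5 days after application from 0 (no damage) to 100 (complete bleaching). Scores reported as percentile distributions (25th, median, 75th) per construct.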

[7] = molecular target: HPPD polypeptides (wild-type SEQ ID NO:1 and mutants) (Pseudomonas sp., UniProt P80064, A172V/A339V/A53E/D148E/D329H/D45N/E105D/E287Q/E300V/E334P/F143Y/G286D/G335D/H150N/H254A/H63N/I158V/I187A/I249V/I344V/K92N/L18F/M263R/N24G/N280D/N336S/P267G/S245T/S257K/S301E/T205S/T269E/V65I); conditions: 15 μM Cmpd. 1, high substrate concentration (Table 3a)
HPPD polypeptides (wild-type SEQ ID NO:1 and mutants) (Pseudomonas sp., UniProt P80064, A172V/A339V/A53E/D148E/D329H/D45N/E105D/E287Q/E300V/E334P/F143Y/G286D/G335D/H150N/H254A/H63N/I158V/I187A/I249V/I344V/K92N/L18F/M263R/N24G/N280D/N336S/P267G/S245T/S257K/S301E/T205S/T269E/V65I), sequence (P80064 other isoform, or with tags, fused parts or gaps with the stated changes): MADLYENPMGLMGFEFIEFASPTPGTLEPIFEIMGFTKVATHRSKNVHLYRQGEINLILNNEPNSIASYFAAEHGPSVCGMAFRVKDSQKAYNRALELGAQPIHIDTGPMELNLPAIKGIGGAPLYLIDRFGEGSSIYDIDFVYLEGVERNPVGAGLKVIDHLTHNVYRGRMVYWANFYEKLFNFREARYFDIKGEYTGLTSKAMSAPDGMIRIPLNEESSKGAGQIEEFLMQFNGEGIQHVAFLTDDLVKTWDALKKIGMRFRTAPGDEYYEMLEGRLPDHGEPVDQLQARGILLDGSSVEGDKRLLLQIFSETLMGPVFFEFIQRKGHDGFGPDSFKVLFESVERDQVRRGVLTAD

[8] = system: HPPD polypeptides (purified, wild-type SEQ ID NO:1 and mutants); assay: Coupled HPPD activity assay: ki determination, competitive inhibition fit; type: biochemical, Pseudomonas fluorescens; conditions: inhibitor Cmpd. 1
Description: For the generation of purified HPPD polypeptide samples, cells were grown for 3 h at 37° C. in 5 ml LB medium containing 100 μg/ml ampicillin in a 50 ml shaker flask at 140 rpm. One ml of this starter culture was used as inoculum for the expression culture. […] At an OD600 of about 0.6, IPTG (Roth, Karlsruhe, Germany) was added to a concentration of 0.4 mM. After further growth for 60 min at 37° C., the temperature was reduced to 28° C. and growth continued for another 18 h at 140 rpm. Cells were harvested by centrifugation at 4° C., 3200 g for 30 min in 50 ml Falcon tubes and cell pellets were stored at −80° C. […]
The resulting protein samples were re-buffered into 20 mM Tris, 20% Glycerol (pH 7.8) (Sigma-Aldrich, St. Louis, USA) by use of Zeba™ Spin Desalting Columns, 7K MWCO, 10 mL (Thermo Fisher Scientific, Waltham, USA) and analysed for protein concentration and purity by Abs280 (NANODROP 8000, Thermo Fisher Scientific, Waltham, USA) and SDS-PAGE. […]
The mutant HPPD polypeptides represented here are examples by a way of illustration, not by a way of limitation. […] The inhibitor concentrations were adopted for the respective HPPD polypeptide/inhibitor pairs to generate dynamic data, i.e. variants with lower tolerance were analyzed in a range of lower inhibitor concentrations, and concentrations of up to 1200 μM were used for variants with maximized tolerance. […]

[9] = 150 g/ha Cmpd. 1, stage V2-V4, eight days after application
[10] = 210 g/ha isoxaflutole, stage V2-V4, eight days after application

B1: SEQ ID NO:31 (protein)
chain: MADLYENPMGLMGFEFIEFASPTPGTLEPIFEIMGFTKVATHRSKNVHLYRQGEINLILNNEPNSIASYFAAEHGPSVCGMAFRVKDSQKAYNRALELGAQPIHIDTGPMELNLPAIKGIGGAPLYLIDRFGEGSSIYDIDFVYLEGVERNPVGAGLKVIDHLTHNVYRGRMVYWANFYEKLFNFREARYFDIKGEYTGLTSKAMSAPDGMIRIPLNEESSKGAGQIEEFLMQFNGEGIQHVAFLTDDLVKTWDALKKIGMRFMTAPGDEYYEMLEGRLPDHGEPVDQLQARGILLDGSSVEGDKRLLLQIFSETLMGPVFFEFIQRKGDDGFGPHSFKVLFESVERDQVRRGVLTAD
modifications: mutant HPPD polypeptide
- residual turnover in the presence of Cmpd. 1 and MST, in words [1]: increase significantly
- brown coloring compared with SEQ ID NO: 2, in words ([2]; 25, 50, 100, 250 and 500 μM Cmpd. 1): stronger brown coloring

B2: SEQ ID NO: 2: prior art mutant HPPD polypeptide (WO2014/043435): E335P G336W K339A A340Q (protein)
chain: B1 chain with G268P, E270T, H336W, S337N, K339A, V340Q, V345I
modifications: mutant HPPD polypeptide
notes: prior art mutant HPPD polypeptide (WO2014/043435): E335P G336W K339A A340Q
- Frequency in the population (events with ≤15% leaf damage) [3, 9]: 41%
- Independent events with ≤15% leaf damage after spray [3, 9]: 16
- Frequency in the population (events with ≤15% leaf damage) [3, 10]: 26%
- Independent events with ≤15% leaf damage after spray [3, 10]: 10
- number of events with Herbicide Tolerance Rating 0 ([4]; five days after application): 5
- Percentage events rated “2 & 3” ([4]; five days, less than 50% leaf damage): 83.3%
- number of events with Herbicide Tolerance Rating 1 ([4]; five days, rating 1 = slight tolerance, 50-95% leaf damage): 10
- number of events with Herbicide Tolerance Rating 2 ([4]; five days, rating 2 = moderate tolerance, 10-49% of leaf area): 26
- number of events with Herbicide Tolerance Rating 3 ([4]; five days, rating 3 = good tolerance, less than 10% of leaf area): 49
- brown pigment formation ([2]; 25 μM Cmpd. 1, scored after 7 days): ++
- brown pigment formation ([2]; 50 μM Cmpd. 1, scored after 7 days): ++
- brown pigment formation ([2]; 100 μM Cmpd. 1, scored after 7 days): ++
- brown pigmentation, in words ([2]; 250 μM Cmpd. 1): only a slight brown pigmentation
- brown pigment formation ([2]; 250 μM Cmpd. 1, scored after 7 days): +
- brown pigmentation, in words ([2]; 500 μM Cmpd. 1): lost their brown pigmentation
- brown pigment formation ([2]; 500 μM Cmpd. 1, scored after 7 days): 0
- brown pigmentation in the presence of the HPPD inhibitor, in words [5]: did not produce a substantial brown pigmentation
- leaf damage score, Interquartile range ([6]; 75th minus 25th percentile): 30.0
- leaf damage score, 25th percentile ([6]; scale 0 (no damage) to 100 (complete bleaching)): 15.0
- leaf damage score, 75th percentile ([6]; scale 0-100): 45.0
- leaf damage score, 90th percentile ([6]; scale 0-100): 87.0
- leaf damage score, Median ([6]; scale 0-100): 20.0

B3: SEQ ID NO:19 (protein)
chain: B1 chain with M264R, D330H, H336D
modifications: mutant HPPD polypeptide
- Residual activity [7]: 68%
- Residual turnover [7]: 79%
- increase of ki towards Cmpd. 1 compared to SEQ ID NO:2 [8]: ~30 fold
